{"source": "the Human Domainome abundance scans (Beltran et al. 2025)", "parents": {"B1": {"name": "Gamma-crystallin S, residues 96 to 176; numbered along this chain, P22914 (parent)", "chain": "IQIFEKGDFSGQMYETTEDCPSIMEQFHMREIHSCKVLEGVWIFYELPNYRGRQYLLDKKEYRKPIDWGAASPAVQSFRRI"}}, "note": "± gives the uncertainty stated by the source.", "data": [{"variants_of": "B1", "assay": "abundance fitness (aPCA) (normalised: wild type 0, dead -1); higher = more abundant; growth selection in yeast, the domain comes from the species named", "details": "Homo sapiens", "values": [{"variant": "IQIFEKGDFSGQMYETTEDCPSIMEQFHMREIHSCKVLEGVWSFYELPNYRGRQYLLDKKEYRKPIDWGAASPAVQSFRRI", "note": "[I43S]", "abundance fitness": "0.015 ± 0.053"}, {"variant": "IQIFEKGDFSGQMYETTEDCPSIMEQFHMREIHSCKVLEGVWMFYELPNYRGRQYLLDKKEYRKPIDWGAASPAVQSFRRI", "note": "[I43M]", "abundance fitness": "0.074 ± 0.12"}, {"variant": "IQIFEKGDFSGQMYETTEDCPSIMEQFHMREIHSCKVLEGVWHFYELPNYRGRQYLLDKKEYRKPIDWGAASPAVQSFRRI", "note": "[I43H]", "abundance fitness": "-0.162 ± 0.36"}, {"variant": "IQIFEKGDFSGQMYETTEDCPSIMEQFHMREIHSCKVLEGVWGFYELPNYRGRQYLLDKKEYRKPIDWGAASPAVQSFRRI", "note": "[I43G]", "abundance fitness": "0.028 ± 0.042"}, {"variant": "IQIFEKGDFSGQMYETTEDCPSIMEQFHMREIHSCKVLEGVWRFYELPNYRGRQYLLDKKEYRKPIDWGAASPAVQSFRRI", "note": "[I43R]", "abundance fitness": "0.016 ± 0.048"}, {"variant": "IQIFEKGDFSGQMYETTEDCPSIMEQFHMREIHSCKVLEGVWYFYELPNYRGRQYLLDKKEYRKPIDWGAASPAVQSFRRI", "note": "[I43Y]", "abundance fitness": "0.047 ± 0.12"}, {"variant": "IQIFEKGDFSGQMYETTEDCPSIMEQFHMREIHSCKVLEGVWQFYELPNYRGRQYLLDKKEYRKPIDWGAASPAVQSFRRI", "note": "[I43Q]", "abundance fitness": "0.056 ± 0.13"}, {"variant": "IQIFEKGDFSGQMYETTEDCPSIMEQFHMREIHSCKVLEGVWKFYELPNYRGRQYLLDKKEYRKPIDWGAASPAVQSFRRI", "note": "[I43K]", "abundance fitness": "-0.123 ± 0.1"}, {"variant": "IQIFEKGDFSGQMYETTEDCPSIMEQFHMREIHSCKVLEGVWWFYELPNYRGRQYLLDKKEYRKPIDWGAASPAVQSFRRI", "note": "[I43W]", "abundance fitness": "-0.032 ± 0.07"}, {"variant": "IQIFEKGDFSGQMYETTEDCPSIMEQFHMREIHSCKVLEGVWPFYELPNYRGRQYLLDKKEYRKPIDWGAASPAVQSFRRI", "note": "[I43P]", "abundance fitness": "-1.1 ± 0.2"}, {"variant": "IQIFEKGDFSGQMYETTEDCPSIMEQFHMREIHSCKVLEGVWNFYELPNYRGRQYLLDKKEYRKPIDWGAASPAVQSFRRI", "note": "[I43N]", "abundance fitness": "0.007 ± 0.14"}, {"variant": "IQIFEKGDFSGQMYETTEDCPSIMEQFHMREIHSCKVLEGVWVFYELPNYRGRQYLLDKKEYRKPIDWGAASPAVQSFRRI", "note": "[I43V]", "abundance fitness": "-0.013 ± 0.049"}, {"variant": "IQIFEKGDFSGQMYETTEDCPSIMEQFHMREIHSCKVLEGVWEFYELPNYRGRQYLLDKKEYRKPIDWGAASPAVQSFRRI", "note": "[I43E]", "abundance fitness": "0.117 ± 0.063"}, {"variant": "IQIFEKGDFSGQMYETTEDCPSIMEQFHMREIHSCKVLEGVWFFYELPNYRGRQYLLDKKEYRKPIDWGAASPAVQSFRRI", "note": "[I43F]", "abundance fitness": "0.008 ± 0.089"}, {"variant": "IQIFEKGDFSGQMYETTEDCPSIMEQFHMREIHSCKVLEGVWIFDELPNYRGRQYLLDKKEYRKPIDWGAASPAVQSFRRI", "note": "[Y45D]", "abundance fitness": "-1.03 ± 0.39"}, {"variant": "IQIFEKGDFSGQMYETTEDCPSIMEQFHMREIHSCKVLEGVWIFIELPNYRGRQYLLDKKEYRKPIDWGAASPAVQSFRRI", "note": "[Y45I]", "abundance fitness": "-1.1 ± 0.45"}, {"variant": "IQIFEKGDFSGQMYETTEDCPSIMEQFHMREIHSCKVLEGVWIFNELPNYRGRQYLLDKKEYRKPIDWGAASPAVQSFRRI", "note": "[Y45N]", "abundance fitness": "-0.123 ± 0.16"}, {"variant": "IQIFEKGDFSGQMYETTEDCPSIMEQFHMREIHSCKVLEGVWIFCELPNYRGRQYLLDKKEYRKPIDWGAASPAVQSFRRI", "note": "[Y45C]", "abundance fitness": "-0.273 ± 0.1"}, {"variant": "IQIFEKGDFSGQMYETTEDCPSIMEQFHMREIHSCKVLEGVWIFQELPNYRGRQYLLDKKEYRKPIDWGAASPAVQSFRRI", "note": "[Y45Q]", "abundance fitness": "-0.888 ± 0.17"}, {"variant": "IQIFEKGDFSGQMYETTEDCPSIMEQFHMREIHSCKVLEGVWIFLELPNYRGRQYLLDKKEYRKPIDWGAASPAVQSFRRI", "note": "[Y45L]", "abundance fitness": "-0.651 ± 0.098"}, {"variant": "IQIFEKGDFSGQMYETTEDCPSIMEQFHMREIHSCKVLEGVWIFAELPNYRGRQYLLDKKEYRKPIDWGAASPAVQSFRRI", "note": "[Y45A]", "abundance fitness": "-0.397 ± 0.076"}, {"variant": "IQIFEKGDFSGQMYETTEDCPSIMEQFHMREIHSCKVLEGVWIFEELPNYRGRQYLLDKKEYRKPIDWGAASPAVQSFRRI", "note": "[Y45E]", "abundance fitness": "-0.794 ± 0.14"}, {"variant": "IQIFEKGDFSGQMYETTEDCPSIMEQFHMREIHSCKVLEGVWIFGELPNYRGRQYLLDKKEYRKPIDWGAASPAVQSFRRI", "note": "[Y45G]", "abundance fitness": "-0.669 ± 0.082"}, {"variant": "IQIFEKGDFSGQMYETTEDCPSIMEQFHMREIHSCKVLEGVWIFKELPNYRGRQYLLDKKEYRKPIDWGAASPAVQSFRRI", "note": "[Y45K]", "abundance fitness": "-0.712 ± 0.24"}, {"variant": "IQIFEKGDFSGQMYETTEDCPSIMEQFHMREIHSCKVLEGVWIFHELPNYRGRQYLLDKKEYRKPIDWGAASPAVQSFRRI", "note": "[Y45H]", "abundance fitness": "-0.123 ± 0.12"}, {"variant": "IQIFEKGDFSGQMYETTEDCPSIMEQFHMREIHSCKVLEGVWIFFELPNYRGRQYLLDKKEYRKPIDWGAASPAVQSFRRI", "note": "[Y45F]", "abundance fitness": "-0.04 ± 0.11"}, {"variant": "IQIFEKGDFSGQMYETTEDCPSIMEQFHMREIHSCKVLEGQWIFYELPNYRGRQYLLDKKEYRKPIDWGAASPAVQSFRRI", "note": "[V41Q]", "abundance fitness": "0.055 ± 0.081"}, {"variant": "IQIFEKGDFSGQMYETTEDCPSIMEQFHMREIHSCKVLEGYWIFYELPNYRGRQYLLDKKEYRKPIDWGAASPAVQSFRRI", "note": "[V41Y]", "abundance fitness": "-0.162 ± 0.12"}, {"variant": "IQIFEKGDFSGQMYETTEDCPSIMEQFHMREIHSCKVLEGWWIFYELPNYRGRQYLLDKKEYRKPIDWGAASPAVQSFRRI", "note": "[V41W]", "abundance fitness": "-0.132 ± 0.058"}, {"variant": "IQIFEKGDFSGQMYETTEDCPSIMEQFHMREIHSCKVLEGTWIFYELPNYRGRQYLLDKKEYRKPIDWGAASPAVQSFRRI", "note": "[V41T]", "abundance fitness": "0.096 ± 0.089"}, {"variant": "IQIFEKGDFSGQMYETTEDCPSIMEQFHMREIHSCKVLEGSWIFYELPNYRGRQYLLDKKEYRKPIDWGAASPAVQSFRRI", "note": "[V41S]", "abundance fitness": "-0.026 ± 0.069"}, {"variant": "IQIFEKGDFSGQMYETTEDCPSIMEQFHMREIHSCKVLEGRWIFYELPNYRGRQYLLDKKEYRKPIDWGAASPAVQSFRRI", "note": "[V41R]", "abundance fitness": "0.047 ± 0.046"}, {"variant": "IQIFEKGDFSGQMYETTEDCPSIMEQFHMREIHSCKVLEGVEIFYELPNYRGRQYLLDKKEYRKPIDWGAASPAVQSFRRI", "note": "[W42E]", "abundance fitness": "-0.363 ± 0.13"}, {"variant": "IQIFEKGDFSGQMYETTEDCPSIMEQFHMREIHSCKVLEGVPIFYELPNYRGRQYLLDKKEYRKPIDWGAASPAVQSFRRI", "note": "[W42P]", "abundance fitness": "-1.04 ± 0.28"}]}]}
